Data reported in publication PMC3976055 (2014).

B1: Nas2LND (domain or fragment)
chain: GPLTRRASVGSQAIQYTIPFAFISEVVPGSPSDKADIKVDDKLISIGNVHAANHSKLQNIQMVVMKNEDRPLPVLLLREGQILKTSLTPSRNWNGRGLLGCRIQEL
B2: Nas2ND (domain or fragment)
chain: NDLNHLLQRSHVLLNQHFDNMNVKSNQDARRNNDDQAIQYTIPFAFISEVVPGSPSDKADIKVDDKLISIGNVHAANHSKLQNIQMVVMKNEDRPLPVLLLREGQILKTSLTPSRNWNGRGLLGCRIQEL
B3: Nas2 (natural protein)
chain: MEEEELSKLLANVKIDPSLTSRISQIDSFKLSELMVLKTDIETQLEAYFSVLEQQGIGMDSALVTPDGYPRSDVDVLQVTMIRKNVNMLKNDLNHLLQRSHVLLNQHFDNMNVKSNQDARRNNDDQAIQYTIPFAFISEVVPGSPSDKADIKVDDKLISIGNVHAANHSKLQNIQMVVMKNEDRPLPVLLLREGQILKTSLTPSRNWNGRGLLGCRIQEL

Target: T1, Rpt5 C-domain (UniProt P33297 350-434)
T1 chain: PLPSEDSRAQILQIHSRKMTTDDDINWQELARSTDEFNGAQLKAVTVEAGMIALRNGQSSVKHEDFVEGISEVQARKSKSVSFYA
Test: BLI
A Kd of 8.5 µM was found for B1 in this work. A Kd of 3.4 µM was found for B2 in this work. A Kd of 1.4 µM was found for B3 in this work.

Target: T1, Rpt5 C-domain
Test: BLI
Remark: another data set of the same source
A koff of 0.39 s⁻¹ was found for B1 in this work. A koff of 0.26 s⁻¹ was found for B2 in this work. A koff of 0.013 s⁻¹ was found for B3 in this work.
